Source: publication PMC2602784

Columns and labels:
Experiment in all cases: EMSA
[1] = target: T1, LldR G63A (Corynebacterium glutamicum ATCC 1332 …, UniProt Q8NLM6 1-231, G63A)
T1 sequence: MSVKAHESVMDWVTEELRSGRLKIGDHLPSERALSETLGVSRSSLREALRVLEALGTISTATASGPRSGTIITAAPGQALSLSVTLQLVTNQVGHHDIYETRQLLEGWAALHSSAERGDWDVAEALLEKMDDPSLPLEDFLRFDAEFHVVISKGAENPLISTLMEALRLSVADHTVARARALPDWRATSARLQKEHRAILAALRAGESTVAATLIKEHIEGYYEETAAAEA

[2] = target: T2, LldR R32A (Corynebacterium glutamicum ATCC 1332 …, UniProt Q8NLM6 1-231, R32A)
T2 sequence: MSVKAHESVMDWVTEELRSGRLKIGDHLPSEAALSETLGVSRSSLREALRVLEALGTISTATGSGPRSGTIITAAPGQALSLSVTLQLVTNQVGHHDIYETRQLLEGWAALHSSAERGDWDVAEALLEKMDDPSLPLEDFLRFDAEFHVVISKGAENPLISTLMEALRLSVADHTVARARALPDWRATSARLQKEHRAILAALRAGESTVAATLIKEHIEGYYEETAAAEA

[3] = target: T3, LldR K4A (Corynebacterium glutamicum ATCC 1332 …, UniProt Q8NLM6 1-231, K4A)
T3 sequence: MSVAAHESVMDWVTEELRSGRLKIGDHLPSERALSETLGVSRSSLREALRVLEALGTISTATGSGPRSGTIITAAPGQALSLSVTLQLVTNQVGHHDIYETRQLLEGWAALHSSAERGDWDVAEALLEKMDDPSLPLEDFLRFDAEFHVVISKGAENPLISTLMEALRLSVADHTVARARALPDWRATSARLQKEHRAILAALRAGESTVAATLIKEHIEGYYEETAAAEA

[4] = target: T4, LldR R42A (Corynebacterium glutamicum ATCC 1332 …, UniProt Q8NLM6 1-231, R42A)
T4 sequence: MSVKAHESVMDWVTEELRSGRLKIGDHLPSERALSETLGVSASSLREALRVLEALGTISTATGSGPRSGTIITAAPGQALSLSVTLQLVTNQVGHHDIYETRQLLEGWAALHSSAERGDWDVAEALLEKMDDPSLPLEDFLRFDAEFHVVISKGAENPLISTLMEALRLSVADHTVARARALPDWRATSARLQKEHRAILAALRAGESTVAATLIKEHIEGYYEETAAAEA

Measured: binding result

B1: cgl2917-site1 (dsDNA)
DNA 1: TTGTGGTCTGACCATGA
DNA 2: TCATGGTCAGACCACAA
no binding: [1] | [2] | [3] | [4]
